Series [1] has as its target N-cadherin-R14E fluorescent fusion protein (X-dimer mutant). In words: FRET or BRET; acceptor bleach FRET at junctions between living COS7 cells of two mixed populations, one expressing the Venus (acceptor) and the other the Cerulean (donor) copy; trans interaction across the junction; FRET ratio = (IpostDonor - IpreDonor)/IpostDonor. In general terms: Bioluminescence resonance energy transfer reports proximity on the nanometre scale.

Series [2] has the same target. Nature of the series: FRET or BRET; ratiometric FRET (Venus to Cerulean fluorescence over time) at a junction between one Venus- and one Cerulean-expressing living COS7 cell; 100 ms interval for 35 sec; baseline 10-15 sec, then the Ca2+ chelator BAPTA added to 20 mM final.
Series [3] deals with N-cadherin-V81D/V174D fluorescent fusion protein (cis double mutant). Nature of the series: FRET or BRET; acceptor bleach FRET at junctions between living COS7 cells of two mixed populations, one expressing the Venus (acceptor) and the other the Cerulean (donor) copy; trans interaction across the junction; FRET ratio = (IpostDonor - IpreDonor)/IpostDonor.
Series [4] shares this target. Nature of the series: FRET or BRET; ratiometric FRET (Venus to Cerulean fluorescence over time) at a junction between one Venus- and one Cerulean-expressing living COS7 cell; 100 ms interval for 35 sec; baseline 10-15 sec, then the Ca2+ chelator BAPTA added to 20 mM final.
Series [5] concerns the target N-cadherin-W2A fluorescent fusion protein (strand-swap mutant). Nature of the series: FRET or BRET; acceptor bleach FRET at junctions between living COS7 cells of two mixed populations, one expressing the Venus (acceptor) and the other the Cerulean (donor) copy; trans interaction across the junction; FRET ratio = (IpostDonor - IpreDonor)/IpostDonor.
Series [6] has the same target. Nature of the series: FRET or BRET; ratiometric FRET (Venus to Cerulean fluorescence over time) at a junction between one Venus- and one Cerulean-expressing living COS7 cell; 100 ms interval for 35 sec; baseline 10-15 sec, then the Ca2+ chelator BAPTA added to 20 mM final.
Series [7] concerns the molecule itself. The series is described as above.
Series [8] deals with the molecule itself. Nature of the series: FRET or BRET; acceptor bleach FRET at junctions between living COS7 cells of two mixed populations, one expressing the Venus (acceptor) and the other the Cerulean (donor) copy; trans interaction across the junction; FRET ratio = (IpostDonor - IpreDonor)/IpostDonor.

Take “N-cadherin-R14E fluorescent fusion protein (X-dimer mutant) (natural protein)”: the FRET ratio (acceptor bleach) in series [1] was 14%. In series [2], the ratiometric FRET ratio after 20 mM BAPTA turned out to be 98.8% and the ratiometric FRET ratio before BAPTA came to 99.2%.

Regarding “N-cadherin-V81D/V174D fluorescent fusion protein (cis double mutant) (natural protein)”, the FRET ratio (acceptor bleach) in series [3] was found to be 22.4%. Further, the ratiometric FRET ratio before BAPTA in series [4] was 99.6%.

For “N-cadherin-W2A fluorescent fusion protein (strand-swap mutant)”, the FRET ratio (acceptor bleach) in series [5] amounted to 29.4%.

In the case of “N-cadherin-W2A fluorescent fusion protein (strand-swap mutant) (natural protein)”, the ratiometric FRET ratio before BAPTA in series [6] was 98.6%.

B1: N-cadherin-WT fluorescent fusion protein (N-cadherin-Venus / N-cadherin-Cerulean) (natural protein, UniProt P15116 160-906, looked up)
chain: DWVIPPINLPENSRGPFPQELVRIRSDRDKNLSLRYSVTGPGADQPPTGIFIINPISGQLSVTKPLDRELIARFHLRAHAVDINGNQVENPIDIVINVIDMNDNRPEFLHQVWNGSVPEGSKPGTYVMTVTAIDADDPNALNGMLRYRILSQAPSTPSPNMFTINNETGDIITVAAGLDREKVQQYTLIIQATDMEGNPTYGLSNTATAVITVTDVNDNPPEFTAMTFYGEVPENRVDVIVANLTVTDKDQPHTPAWNAAYRISGGDPTGRFAILTDPNSNDGLVTVVKPIDFETNRMFVLTVAAENQVPLAKGIQHPPQSTATVSVTVIDVNENPYFAPNPKIIRQEEGLHAGTMLTTLTAQDPDRYMQQNIRYTKLSDPANWLKIDPVNGQITTIAVLDRESPNVKNNIYNATFLASDNGIPPMSGTGTLQIYLLDINDNAPQVLPQEAETCETPEPNSINITALDYDIDPNAGPFAFDLPLSPVTIKRNWTINRLNGDFAQLNLKIKFLEAGIYEVPIIITDSGNPPKSNISILRVKVCQCDSNGDCTDVDRIVGAGLGTGAIIAILLCIIILLILVLMFVVWMKRRDKERQAKQLLIDPEDDVRDNILKYDEEGGGEEDQDYDLSQLQQPDTVEPDAIKPVGIRRLDERPIHAEPQYPVRSAAPHPGDIGDFINEGLKAADNDPTAPPYDSLLVFDYEGSGSTAGSLSSLNSSSSGGDQDYDYLNDWGPRFKKLADMYGGGDD
notes: a fluorescent protein is inserted into the second extracellular cadherin repeat at position 151 of the mature protein; numbers count on: the mature protein; Self-association in trans: one cell population expresses the Venus copy (FRET acceptor), the other the Cerulean copy (FRET donor); both are written as this one molecule; also called N-cadherin-Venus-WT; WT-N-cadherin; source: COS7 cells, …
Consider B1, for which, in series [7], the “ratiometric FRET ratio after 20 mM BAPTA” value stood at 89.6% and the “ratiometric FRET ratio before BAPTA” value amounted to 99.6%. For the same molecule, the “FRET ratio (acceptor bleach)” value in series [8] stood at 19.9%.
